Experimental data taken from paper PMC8156991, “The Profound Influence of Lipid Composition on the Catalysis of the Drug Target NADH Type II Oxidoreductase” (Membranes, 2021).

Substrate: CC1=CC(=O)c2ccccc2C1=O
Assay: cells, lysate or membranes named
Assay type: biochemical, Caldalkalibacillus thermarum
Conditions: 33% PG + 67% PE vesicles with 1% menaquinone-7 embedded as shuttle, co-substrate NADH, 20 mM MOPS, 30 mM Na2SO4, pH 7.4, 25 °C, lipid-dependent

B1: CthNDH-2 (Caldalkalibacillus thermarum type II NADH:quinone oxidoreductase) (Caldalkalibacillus thermarum TA2.A1) (protein)
chain: MSKPSIVILGAGYGGIVAALGLQKRLNYNEADITLVNKNDYHYITTELHQPAAGTMHHDQARVGIKELIDEKKIKFVKDTVVAIDREQQKVTLQNGELHYDYLVVGLGSEPETFGIEGLREHAFSINSINSVRIIRQHIEYQFAKFAAEPERTDYLTIVVGGAGFTGIEFVGELADRMPELCAEYDVDPKLVRIINVEAAPTVLPGFDPALVNYAMDVLGGKGVEFKIGTPIKRCTPEGVVIEVDGEEEEIKAATVVWTGGVRGNSIVEKSGFETMRGRIKVDPYLRAPGHENIFIVGDCALIINEENNRPYPPTAQIAIQHGENVAANLAALIRGGSMTPFKPHIRGTVASLGRNDAIGIVGGRKVYGHAASWLKKLIDMRYLYLIGGLSLVLKKGRF
Km: 21.7 µM
